Measured values taken from article PMC7339825 (Nature structural & molecular biology, 2020).

B1: binary TSG101-VPS28 ESCRT-I head subcomplex, wild type (complex)
chain 1: QSENNDIDEVIIPTAPLYKQILNLYAEENAIEDTIFYLGEALRRGVIDLDVFLKHVRLLSRKQFQLRALMQKARKTAGLSD
chain 2: MFHGIPATPGIGAPGNKPELYEEVKLYKNAREREKYDNMAELFAVVKTMQALEKAYIKDCVSPSEYTAACSRLLVQYKAAFRQVQGSEISSIDEFCRKFRLDCPLAMERIKEDRPITIKDDK

Experiments:
[1] = molecular target: B1; experiment: pull-down
[2] = molecular target: the molecule itself; experiment: SEC

Row | binding result [1] | Binder | binding result [2]
1 | binds | GST-TSG101 UEV domain (residues 2-145) (domain or fragment) AVSESQLKKMVSKYKYRDLTVRETVNVITLYKDLKPVLDSYVFNDGSSRELMNLTGTIPVPYRGNTYNIPICLWLLDTYPYNPPICFVKPTSSMTIKTGKHVDANGKIYLPYLHEWKHPQSDLLGLIQVMIVVFGDEPPVFSRP | 
2 |  | B1 | binds
